Read-outs that look alike come from different tables or passages of the source.
Experiments:
[1] = tested on: Pancreas cancer; assay: Immunohistochemistry: human tissues with biotinylated NEO-101; assay type: binding
Description: (§1) Consequently, the positively stained “normal” tissues may have already undergone genotypic changes (“pre-cancerous”) resulting in the expression of the aberrantly glycosylated MUC5AC antigen that could lead to detection of carcinoma with NEO-101.

[2] = tested on: Uterus cancer; assay: as above; assay type: binding
Description: as §1

[3] = tested on: Prostate cancer; assay: as above; assay type: binding
Description: as §1

[4] = tested on: Normal prostate; assay: as above; assay type: binding
Description: as §1

[5] = tested on: Normal uterus; assay: as above; assay type: binding
Description: as §1

[6] = tested on: Colon cancer; assay: as above; assay type: binding
Description: as §1

[7] = tested on: Normal pancreas; assay: as above; assay type: binding
Description: as §1

[8] = tested on: Colorectal cancer biopsies; assay: IHC staining of patient tumor biopsies with NEO-101; assay type: binding, human
Description: (§2) Patients enrolled on the clinical diagnostic study agreed to provide their tumor biopsy or surgical specimen to be stained immunohistochemically with NEO-101. Tumor sections were prepared as slides, and two additional slides were prepared for negative control (human IgG1) and positive control (cytokeratin) staining to ensure quality controls for the IHC method. More specifically, tumor biopsy specimens from colorectal and pancreas cancer patients were deparaffinized at about 60° C. for 30 min prior to staining with NEO-101. Subsequently, all staining steps were carried out at about 25° C. Slides (4 μm) were blocked with Peroxo-Bloc® inhibitor (Zymed Laboratories) for about 2 min, rinsed with phosphate-buffered saline (PBS), and blocked with CAS (Zymed) for an additional about 10 minutes. Slides were stained with about 10 μg/mL of biotin-labeled NEO-101 for 1 hour, and washed three times with PBS containing 0.05% Tween®-20 non-ionic detergent. […] A 1:400 dilution of peroxidase-conjugated streptavidin (Dako North America, Inc.) was then applied to the slides for about 30 minutes and slides were washed three times. A solution of DAB (Zymed) was applied for about 2-3 minutes then rinsed with PBS. A solution of hematoxylin was then applied for about 3 minutes and rinsed with tap water until clear. The slides were dehydrated with xylene and a coverslip was added using Permount® mounting medium. Additional consecutive slides were stained with human cytokeratin AE1/AE3 (Abcam plc) as a positive control, and human IgG1 isotype as a negative control (AXXORA, LLC).
(§3) All antibodies were biotinylated prior to use and tested independently at various concentrations using human tumor tissues known to react with the antibodies. Primary antibody (NEO-101) was used at about 10 μg/mL, detected with streptavidin-horseradish peroxidase conjugate, and mounted on slides. A positive staining scale ranging from +1 to +5 was applied to the staining results, measured by light microscopy. Tissues stained with NEO-101 were considered positive (+1 to +5) for an average of 79% of the patient tumor samples (30 of 38 of both colorectal and pancreatic cancer biopsies) including the 5 pancreatic tumor samples. Tissues that were negative or considered weak staining by the immunohistochemist were considered negative. These staining results are similar to results from several other studies completed with antibodies using tissue array slides, and both frozen and paraffin-embedded surgical specimens.

[9] = tested on: Pancreatic cancer biopsies; assay: as above; assay type: binding, human
Description: as §2, §3

[10] = tested on: SW1463 (Colorectal); assay: ADCC 4-hour 111-Indium release assay; assay type: cell-based, human
Description: (§4) The NEO-101 antibody was tested for antibody-dependent cell cytotoxicity (ADCC) activity against several colorectal and pancreatic tumor cell targets in vitro. The ADCC assay measures the amount of cell cytotoxicity that an antibody facilitates in a defined time period by the release of radiolabelled cytoplasmic proteins into the culture medium. […] The specific lytic activity was titratable with the number of effector cells in the assay.

[11] = tested on: CFPAC-1 (Pancreatic); assay: ADCC 4-hour 111-Indium release assay; assay type: cell-based, human
Description: as §4

[12] = tested on: LS174T (Colorectal); assay: ADCC 4-hour 111-Indium release assay; assay type: cell-based, human
Description: as §4

[13] = tested on: SK-MEL (Melanoma); assay: ADCC 4-hour 111-Indium release assay; assay type: cell-based, human
Description: as §4

[14] = tested on: SW620 (Colorectal); assay: ADCC 4-hour 111-Indium release assay; assay type: cell-based, human
Description: as §4

[15] = tested on: PANC-1 (Pancreatic); assay: ADCC 4-hour 111-Indium release assay; assay type: cell-based, human
Description: as §4

[16] = tested on: Colo-205 (Colorectal); assay: ADCC 4-hour 111-Indium release assay; assay type: cell-based, human
Description: as §4

[17] = tested on: AsPC-1 (Pancreatic); assay: ADCC 4-hour 111-Indium release assay; assay type: cell-based, human
Description: as §4

B1: NEO-101: Chimeric NEO-101 antibody, engineered in CHO-DG44 production cell clone 4B7; targets a variant of MUC5AC (protein)
light: QVVLTQSPVIMSASPGEKVTMTCSASSSISYMYWYQQKPGTSPKRWIYDTSKLASGVPARFSGSGSGTSYSLTISNMEAGDAATYYCHQRDSYPWTFGGGTNLEIK
heavy: QVQLKESGPDLVAPSQSLSITCTVSGFSLSKFGVNWVRQPPGKGLEWLGVIWGDGSTSYNSGLISRLSISKENSKSQVFLKLNSLQADDTATYYCVKPGGDYWGHGTSVTVSS
- Tissue staining intensity +1 [1]: (16%)
- Tissue staining intensity +2 [1]: (6%)
- Tissue staining intensity +3 [1]: (17%)
- Tissue staining intensity +4 [1]: (9%)
- Tissue staining intensity Negative [1]: (52%)
- Tissue staining intensity +1 ([1]; samples/total): 17/108
- Tissue staining intensity +2 ([1]; samples/total): 7/108
- Tissue staining intensity +3 ([1]; samples/total): 18/108
- Tissue staining intensity +4 ([1]; samples/total): 10/108
- Tissue staining intensity Negative ([1]; samples/total): 56/108
- Total Positive ([1]; samples/total): 52/108
- Tissue staining intensity +2 [2]: (5%)
- Tissue staining intensity +3 [2]: (19%)
- Tissue staining intensity Negative [2]: (76%)
- Total Positive [2]: (24%)
- Tissue staining intensity +2 ([2]; samples/total): 2/42
- Tissue staining intensity +3 ([2]; samples/total): 8/42
- Tissue staining intensity Negative ([2]; samples/total): 32/42
- Total Positive ([2]; samples/total): 10/42
- Tissue staining intensity +1 [3]: (12%)
- Tissue staining intensity +2 [3]: (12%)
- Tissue staining intensity Negative [3]: (75%)
- Total Positive [3]: (25%)
- Tissue staining intensity +1 ([3]; samples/total): 5/40
- Tissue staining intensity +2 ([3]; samples/total): 5/40
- Tissue staining intensity Negative ([3]; samples/total): 30/40
- Total Positive ([3]; samples/total): 10/40
- Tissue staining intensity Negative [4]: (100%)
- Total Positive [4]: (0%)
- Tissue staining intensity Negative ([4]; samples/total): 4/4
- Total Positive ([4]; samples/total): 0/4
- Tissue staining intensity Negative [5]: (100%)
- Total Positive [5]: (0%)
- Tissue staining intensity Negative ([5]; samples/total): 12/12
- Total Positive ([5]; samples/total): 0/12
- Tissue staining intensity +1 [6]: (15%)
- Tissue staining intensity +2 [6]: (8%)
- Tissue staining intensity +4 [6]: (10%)
- Tissue staining intensity Negative [6]: (56%)
- Tissue staining intensity Weak [6]: (10%)
- Tissue staining intensity +1 ([6]; samples/total): 7/48
- Tissue staining intensity +2 ([6]; samples/total): 4/48
- Tissue staining intensity +4 ([6]; samples/total): 5/48
- Tissue staining intensity Negative ([6]; samples/total): 27/48
- Tissue staining intensity Weak ([6]; samples/total): 5/48
- Total Positive ([6]; samples/total): 21/48
- Tissue staining intensity Negative [7]: (100%)
- Total Positive [7]: (0%)
- Tissue staining intensity Negative ([7]; samples/total): 3/3
- Total Positive ([7]; samples/total): 0/3
- % Positive by IHC with NEO-1O1 [8]: 76%
- Positive by IHC, subjects/total [8]: (25/33)
- % Positive by IHC with NEO-1O1 [9]: 100%
- Positive by IHC, subjects/total [9]: (5/5)
- % Specific Killing (±SEM) ([10]; Effector:Target 12.5:1): 17.9 ± 1.7%
- % Specific Killing (±SEM) ([10]; Effector:Target 25:1): 25.5 ± 0.6%
- % Specific Killing (±SEM) ([10]; Effector:Target 50:1): 33.8 ± 1.0%
- % Specific Killing (±SEM) ([11]; Effector:Target 12.5:1): 11.1 ± 1.6%
- % Specific Killing (±SEM) ([11]; Effector:Target 25:1): 23.2 ± 2.2%
- % Specific Killing (±SEM) ([11]; Effector:Target 50:1): 26.9 ± 1.6%
- % Specific Killing (±SEM) ([12]; Effector:Target 12.5:1): 9.5 ± 0.5%
- % Specific Killing (±SEM) ([12]; Effector:Target 25:1): 18.5 ± 4.1%
- % Specific Killing (±SEM) ([12]; Effector:Target 50:1): 26.8 ± 2.9%
- % Specific Killing (±SEM) ([13]; Effector:Target 12.5:1): 2.3 ± 0.6%
- % Specific Killing (±SEM) ([13]; Effector:Target 25:1): 3.3 ± 1.1%
- % Specific Killing (±SEM) ([13]; Effector:Target 50:1): 4.6 ± 1.1%
- % Specific Killing (±SEM) ([14]; Effector:Target 12.5:1): 51.5 ± 0.9%
- % Specific Killing (±SEM) ([14]; Effector:Target 25:1): 61.0 ± 1.8%
- % Specific Killing (±SEM) ([14]; Effector:Target 50:1): 63.7 ± 2.9%
- % Specific Killing (±SEM) ([15]; Effector:Target 12.5:1): 21.2 ± 0.6%
- % Specific Killing (±SEM) ([15]; Effector:Target 25:1): 33.2 ± 3.3%
- % Specific Killing (±SEM) ([15]; Effector:Target 50:1): 46.8 ± 2.1%
- % Specific Killing (±SEM) ([16]; Effector:Target 12.5:1): 32.8 ± 2.0%
- % Specific Killing (±SEM) ([16]; Effector:Target 25:1): 46.4 ± 1.6%
- % Specific Killing (±SEM) ([16]; Effector:Target 50:1): 66.7 ± 0.6%
- % Specific Killing (±SEM) ([17]; Effector:Target 12.5:1): 26.5 ± 6.7%
- % Specific Killing (±SEM) ([17]; Effector:Target 25:1): 36.2 ± 2.6%
- % Specific Killing (±SEM) ([17]; Effector:Target 50:1): 44.5 ± 6.8%

Reference: patent publication US11078245B2, “Colon and pancreas cancer peptidomimetics” (PRECISION BIOLOGICS, INC., priority 2010, dated 2021)
